Measured values reported in patent US20140099308A1 (IMMUNOGEN, published 2014).
Where two headings read alike, the source gives them in different places.

Legend:
[1] = target: T1, human EGFR (human, UniProt P00533 25-1210); test: flow cytometry competition on A431 cells; competitor: 10 nM biotinylated TGFα
[2] = target: T2, huEGFRdIII-Fc (human; murine, UniProt P00533 334-525); test: ELISA on the EGFR ECD-Fc construct (A450)
T2 construct: range 310-501; Residue numbers count on the mature receptor, not on the precursor; also called human EGFR domain III; not shown: murine IgG2A hinge, CH2, and CH3 region

[3] = target: T3, huEGFR-Fc (human; murine, UniProt P00533 25-645); test: ELISA on the EGFR ECD-Fc construct (A450)
T3 construct: extracellular domain; also called human EGFR ECD Fc fusion; wild type human EGFR; not shown: murine IgG2A hinge, CH2, and CH3 region (pmuFc2ANL vector)

[4] = target: T4, chEGFRdIII-Fc (murine; human, UniProt Q01279 334-483; P00533 484-505; Q01279 506-525); test: ELISA on the EGFR ECD-Fc construct (A450)
T4 construct: range 310-459;range 460-481;range 482-501; the split into three pieces follows from that; also called human/murine EGFR chimera; not shown: murine IgG2A hinge, CH2, and CH3 region

[5] = target: T1, human EGFR; test: flow cytometry competition on MDA-MB468 cells; competed: 0.2 nM biotinylated cetuximab; streptavidin-Alexa 488 detection
Experimental: (§1) To distinguish binding epitopes of anti-EGFR antibodies, antibody binding competition assays were done using flow cytometry. […] In brief, the biotinylated antibody was pre-mixed with varying concentration of ‘competing’ antibodies. The antibody mixture was then incubated with cells on ice for 2h. […] After washing, the cells were fixed and analyzed in FACScalibur. The geometric mean fluorescence intensity was plotted against antibody concentration in semi-log plot and normalized so that 100% represents the maximal binding of the biotinylated antibody in absence of other antibody and 0% represents the background staining in absence of the biotinylated antibody.

[6] = target: T1, human EGFR; test: cell-based or functional assay
[7] = target: T1, human EGFR; test: flow cytometry competition on MDA-MB468 cells; competed: 0.3 nM biotinylated 528 antibody; streptavidin-Alexa 488 detection
Experimental: as §1

[8] = target: T1, human EGFR; test: cell-based or functional assay; remark: listed apart in the source
[9] = target: T1, human EGFR; test: cell-based or functional assay; remark: listed apart in the source
[10] = target: T2, huEGFRdIII-Fc; test: ELISA on the EGFR ECD-Fc construct (A450); remark: listed apart in the source
[11] = target: T3, huEGFR-Fc; test: ELISA on the EGFR ECD-Fc construct (A450); remark: listed apart in the source
[12] = target: T4, chEGFRdIII-Fc; test: ELISA on the EGFR ECD-Fc construct (A450); remark: listed apart in the source
[13] = target: T5, muEGFRdIII-Fc (murine, UniProt Q01279 334-525); test: ELISA on the EGFR ECD-Fc construct (A450)
T5 construct: range 310-501; Residue numbers count on the mature receptor, not on the precursor; also called murine EGFR domain III; not shown: murine IgG2A hinge, CH2, and CH3 region

[14] = target: T1, human EGFR; test: flow cytometry competition on A431 cells; competitor: 1.8 nM biotinylated EGF
Experimental: To examine if the EGFR antibodies inhibit the ligand binding to the EGFR, the binding of biotinylated EGFR ligand to the A431 cells was measured by flow cytometry in the presence of anti-EGFR antibodies. […] Prior to competition assay, the binding curve of the biotinylated ligands was established. […] Cells were then washed twice with FACS buffer and incubated with streptavidin-APC conjugate (Jackson Immunoresearch) for 15 min on ice. Cells were washed twice with FACS buffer and analyzed in FACS Calibur (BD Bioscience) using FlowJo program (Tree Star). The geometric mean fluorescence intensities were plotted against the antibody concentration in a semi-log plot.

[15] = target: T2, huEGFRdIII-Fc; test: ELISA on the EGFR ECD-Fc construct (A450); remark: listed apart in the source
[16] = target: T3, huEGFR-Fc; test: ELISA on the EGFR ECD-Fc construct (A450); remark: listed apart in the source
[17] = target: T4, chEGFRdIII-Fc; test: ELISA on the EGFR ECD-Fc construct (A450); remark: listed apart in the source
[18] = target: T5, muEGFRdIII-Fc; test: ELISA on the EGFR ECD-Fc construct (A450); remark: listed apart in the source

EC50 [1]	EC50 [2]	EC50 [3]	EC50 [4]	IC50 (read off the curve) [5]	EC50 (nM), anti-proliferative activity in NCI-H292 cells [6]	IC50 (read off the curve) [7]	EC50 (nM), anti-proliferative activity in HCC827 cells [8]	Maximal inhibition (%), HCC827 cells [8]	EC50 (nM), anti-proliferative activity in NCI-H292 cells [9]	EC50 [10]	EC50 [11]	EC50 [12]	binding result [13]	EC50 [14]	EC50 [15]	EC50 [16]	EC50 [17]	binding result [18]	Molecule
1.34 nM																			TGFα (ligand)
	0.043 nM	0.0328 nM	0.294 nM	~2 nM	0.4 nM	~2 nM	0.03 nM	72%	0.21 nM										muEGFR-7 antibody (antibody, V domains shown, Murine hybridoma antibody (ATCC PTA-11332)) VH: QVQLQQSGAELARPGASVKLSCKASGYTFTSYWMQWVKQRPGQGLECIGTIYPGDGDTTYTQKFKGKATLTADKSSSTAYMQLSSLASEDSAVYYCARYDAPGYAMDYWGQGTSVTVSS VL: DIQMTQSPSSLSASLGGKVTITCKASQDINNYLAWYQHKPGKGPRLLIHYTSTLHPGIPSRFSGSGSGRDYSFSISNLEPEDIATYYCLQYDNLLYTFGGGTKLEIKR
1.34 nM				~2 nM		~2 nM	0.7 nM	63%		0.0572 nM	0.0485 nM	1.24 nM	no binding (tested: 10^-7 M)	2.93 nM					muEGFR-12 antibody (antibody, V domains shown, Murine hybridoma antibody (ATCC PTA-11333)) VH: QVQLQQSGTELARPGASVKLSCKASGYTFTSYWMQWVKQRPGQGLECIGTIYPGDGDTRYIQKFKGKATLTADKSSSTAYMQLSSLASEDSAVYYCARYDAPGYAMDYWGQGTSVTVSS VL: DVQITQSPSYLAASPGETITINCRASKSISKYLAWYQEKPGKTNKLLIYSGSTLQSGIPSRFSGSGSGTDFTLTISSLEPEDFAMYYCQQHNEYPWTFGGGTKLEIK
1.18 nM				~2 nM	5.6 nM	~2 nM	0.3 nM	72%	2.59 nM					2.55 nM	0.0694 nM	0.0484 nM	0.867 nM	no binding (tested: 10^-7 M)	muEGFR-6 antibody (antibody, V domains shown, Murine hybridoma antibody (ATCC PTA-11331)) VH: QVQLQQSGAELARPGASVKLSCKASGYTFTSYWMQWVKQRPGQGLECIGALYPGDGDARYTQKFKGKATLTADRSSSTAYMQLSSLASEDSAVYYCARYDAPGYAMDYWGQGTSVTVAS VL: DIQMTQSPSSLSASLGGKVTITCKASQDINNYIAWYQHKPGKGPRLLIHYTSTLHPGIPSRFSGSGSGRDYSFSISNLEPEDIATYYCLQYDNLLYTFGGGTKLEIKR
